In the data set the target is CPSF160;WDR33;CPSF30;Fip1 (human;human;human;human, UniProt Q10570;Q9C0J8;O95639-3;Q6UN15-4 1-1443;1-410;1-178;130-195, |||). Put plainly: cryo-EM structure.
Chain of CPSF160;WDR33;CPSF30;Fip1 (Q10570 whole entry, chain 1 of 4): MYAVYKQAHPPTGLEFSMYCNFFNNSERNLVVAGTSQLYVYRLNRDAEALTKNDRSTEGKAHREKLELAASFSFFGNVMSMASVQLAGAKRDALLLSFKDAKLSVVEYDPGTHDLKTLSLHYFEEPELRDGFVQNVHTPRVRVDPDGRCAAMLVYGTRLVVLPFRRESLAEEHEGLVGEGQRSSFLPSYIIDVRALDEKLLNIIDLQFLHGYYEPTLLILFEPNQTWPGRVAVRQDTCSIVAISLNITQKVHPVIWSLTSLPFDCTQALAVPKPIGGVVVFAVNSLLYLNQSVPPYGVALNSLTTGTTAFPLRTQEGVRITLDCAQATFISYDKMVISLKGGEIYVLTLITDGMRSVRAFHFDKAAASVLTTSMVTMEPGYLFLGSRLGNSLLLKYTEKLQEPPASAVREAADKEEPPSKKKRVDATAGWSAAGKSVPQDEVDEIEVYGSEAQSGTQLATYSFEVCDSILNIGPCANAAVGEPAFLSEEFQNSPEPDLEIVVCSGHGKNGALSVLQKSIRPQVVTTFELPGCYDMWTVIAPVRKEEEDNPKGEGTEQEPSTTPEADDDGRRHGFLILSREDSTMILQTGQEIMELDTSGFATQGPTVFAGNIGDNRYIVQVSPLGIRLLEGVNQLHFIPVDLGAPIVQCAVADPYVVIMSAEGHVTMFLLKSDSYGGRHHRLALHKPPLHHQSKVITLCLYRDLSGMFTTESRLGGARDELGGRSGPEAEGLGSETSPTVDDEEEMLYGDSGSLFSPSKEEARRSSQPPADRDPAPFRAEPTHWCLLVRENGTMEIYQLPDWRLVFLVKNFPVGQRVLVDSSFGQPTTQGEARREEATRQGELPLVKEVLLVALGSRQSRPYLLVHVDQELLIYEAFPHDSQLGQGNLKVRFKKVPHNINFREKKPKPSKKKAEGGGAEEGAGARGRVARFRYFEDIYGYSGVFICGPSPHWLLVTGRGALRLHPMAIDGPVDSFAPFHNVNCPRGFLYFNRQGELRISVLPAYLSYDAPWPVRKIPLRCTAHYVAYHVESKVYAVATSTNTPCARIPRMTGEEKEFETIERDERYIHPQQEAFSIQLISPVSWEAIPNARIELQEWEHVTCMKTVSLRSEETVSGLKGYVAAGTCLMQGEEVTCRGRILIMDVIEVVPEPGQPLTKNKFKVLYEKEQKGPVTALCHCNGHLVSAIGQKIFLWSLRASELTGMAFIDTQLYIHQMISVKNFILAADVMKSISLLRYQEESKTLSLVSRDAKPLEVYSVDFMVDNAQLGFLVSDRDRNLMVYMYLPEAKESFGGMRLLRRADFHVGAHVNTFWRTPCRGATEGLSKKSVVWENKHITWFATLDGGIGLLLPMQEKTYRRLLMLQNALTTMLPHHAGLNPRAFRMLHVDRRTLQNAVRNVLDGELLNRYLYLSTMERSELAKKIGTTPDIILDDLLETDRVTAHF
Chain of CPSF160;WDR33;CPSF30;Fip1 (Q9C0J8 1-410, chain 2 of 4): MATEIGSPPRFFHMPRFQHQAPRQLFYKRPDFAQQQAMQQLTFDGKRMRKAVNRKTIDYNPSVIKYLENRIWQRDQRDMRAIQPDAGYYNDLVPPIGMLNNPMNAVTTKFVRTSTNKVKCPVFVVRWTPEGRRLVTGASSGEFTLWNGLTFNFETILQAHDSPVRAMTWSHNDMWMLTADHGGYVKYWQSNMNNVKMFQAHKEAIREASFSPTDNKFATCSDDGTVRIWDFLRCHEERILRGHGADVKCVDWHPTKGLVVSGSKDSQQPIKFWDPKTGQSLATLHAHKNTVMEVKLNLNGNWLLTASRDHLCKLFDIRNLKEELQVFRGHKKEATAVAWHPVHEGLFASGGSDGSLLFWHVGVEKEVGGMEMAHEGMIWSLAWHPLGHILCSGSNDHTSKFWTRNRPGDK
Chain of CPSF160;WDR33;CPSF30;Fip1 (O95639 1-178, chain 3 of 4): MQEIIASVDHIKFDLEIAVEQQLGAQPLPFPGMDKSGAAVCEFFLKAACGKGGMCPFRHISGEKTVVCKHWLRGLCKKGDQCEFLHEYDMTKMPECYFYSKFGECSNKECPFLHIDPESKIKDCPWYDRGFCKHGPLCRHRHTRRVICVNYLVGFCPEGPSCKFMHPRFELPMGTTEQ
Chain of CPSF160;WDR33;CPSF30;Fip1 (Q6UN15 145-210, chain 4 of 4): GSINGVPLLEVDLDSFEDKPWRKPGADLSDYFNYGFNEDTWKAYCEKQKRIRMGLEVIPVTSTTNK

As to ACAAUAAAGG (ssRNA) [10-mer PAS RNA], the binding result was “binds”.

Values taken from paper PMC6900284.
